Measurements published in FireProtDB (doi:10.1021/bi973006i).
“And” between values parts separate entries of the source, which are not always exact repeats. Equal values may be shown once.

Details: Thermal, reversible: yes
[1] = Methanothermus fervidus, pH 3, DSC, glycine 25 mM, KCl 0.2 M
[2] = Methanothermus fervidus, pH 4, DSC, glycine 25 mM, KCl 0.2 M
[3] = Methanothermus fervidus, pH 5, DSC, acetate 25 mM, KCl 0.2 M
[4] = Methanothermus fervidus, pH 6, DSC, MES 25 mM, KCl 0.2 M
[5] = Methanobacterium formicicum, pH 2, DSC, glycine 25 mM, KCl 1.0 M
[6] = Methanobacterium formicicum, pH 3, DSC, glycine 25 mM, KCl 1.0 M
[7] = Methanobacterium formicicum, pH 4, DSC, glycine 25 mM, KCl 0.2 M
[8] = Methanobacterium formicicum, pH 4, DSC, glycine 25 mM, KCl 1.0 M
[9] = Methanobacterium formicicum, pH 5, DSC, acetate 25 mM, KCl 0.2 M
[10] = Methanobacterium formicicum, pH 5, DSC, acetate 25 mM, KCl 1.0 M
[11] = Methanobacterium formicicum, pH 6, DSC, MES 25 mM, KCl 0.2 M
[12] = Methanobacterium formicicum, pH 6, DSC, MES 25 mM, KCl 1.0 M

Chain of Archaeal histone A1 wild type, P48782 (P48782 whole entry): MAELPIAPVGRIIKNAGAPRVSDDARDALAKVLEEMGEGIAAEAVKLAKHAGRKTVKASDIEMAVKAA
Chain of DNA-binding protein HMf-1 wild type, P48781 (P48781 whole entry): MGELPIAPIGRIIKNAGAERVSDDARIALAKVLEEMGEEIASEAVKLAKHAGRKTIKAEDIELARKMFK
Chain of Archaeal histone B wild type, O59627 (O59627 whole entry): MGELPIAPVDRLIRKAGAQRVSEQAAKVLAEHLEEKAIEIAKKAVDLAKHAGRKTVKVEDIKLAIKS

With “DNA-binding protein HMf-1 wild type, P48781” as the substance, how does the Tm (Methanothermus fervidus, pH 2, CD, glycine 25 mM, KCl 1.0 M) read?
The Tm was 94 °C.

And the Tm (Methanothermus fervidus, pH 2.5, CD, glycine 25 mM, KCl 0.2 M)?
The Tm was 78.2 °C.

What about the Tm (Methanothermus fervidus, pH 2.7, CD, glycine 25 mM, KCl 0.2 M) of the same substance?
Its Tm is 84.9 °C.

And the Tm (Methanothermus fervidus, pH 3, CD, glycine 25 mM, KCl 0.2 M)?
The Tm was 84.6 °C and 89.3 °C.

What about the Tm (Methanothermus fervidus, pH 3, CD, glycine 25 mM, KCl 1.0 M) of the same substance?
Its Tm is 101 °C.

And the Tm [1]?
Its Tm is 96.1 °C.

And the “unfolding enthalpy (calorimetric)” value [1]?
Its value is 14.1 kcal/mol.

And the “unfolding enthalpy (van 't Hoff)” value [1]?
The value was 139 kcal/mol.

What about the Tm (Methanothermus fervidus, pH 3.3, CD, glycine 25 mM, KCl 0.2 M) of the same substance?
The Tm was 94.1 °C.

And the Tm (Methanothermus fervidus, pH 3.7, CD, glycine 25 mM, KCl 0.2 M)?
The Tm was 103 °C.

What about the Tm (Methanothermus fervidus, pH 4, CD, glycine 25 mM, KCl 0.2 M) of the same substance?
The Tm was 100 °C and 103 °C.

And the Tm [2]?
Its Tm is 97.6 °C.

And the “unfolding enthalpy (calorimetric)” value [2]?
Its value is 41.3 kcal/mol.

What about the “unfolding enthalpy (van 't Hoff)” value [2] of the same substance?
Its value is 158 kcal/mol.

What about the Tm [3] of the same substance?
Its Tm is 104 °C.

And the “unfolding enthalpy (calorimetric)” value [3]?
The value was 37.3 kcal/mol.

What about the “unfolding enthalpy (van 't Hoff)” value [3] of the same substance?
Its value is 164 kcal/mol.

What about the Tm [4] of the same substance?
The Tm was 101 °C.

What about the “unfolding enthalpy (calorimetric)” value [4] of the same substance?
Its value is 44.5 kcal/mol.

What about the “unfolding enthalpy (van 't Hoff)” value [4] of the same substance?
The value was 158 kcal/mol.

For Archaeal histone B wild type, O59627, which Tm (Pyrococcus furiosus (strain ATCC 43587 / DSM 3638 / JCM 8422 / Vc1), pH 4, CD, glycine 25 mM, KCl 0.2 M) is on record?
Its Tm is 107 °C.

And the Tm (Pyrococcus furiosus (strain ATCC 43587 / DSM 3638 / JCM 8422 / Vc1), pH 5, CD, acetate 25 mM, KCl 0.2 M)?
The Tm was 114 °C.

And the Tm (Pyrococcus furiosus (strain ATCC 43587 / DSM 3638 / JCM 8422 / Vc1), pH 7.5, CD, phosphate 25 mM, KCl 0.2 M)?
Its Tm is 110 °C.

What does the source list for Archaeal histone A1 wild type, P48782?
Tm (Methanobacterium formicicum, pH 2, CD, glycine 25 mM, KCl 1.0 M): 60.3 °C; Tm [5]: 64.7 °C; unfolding enthalpy (calorimetric) [5]: 10.5 kcal/mol; unfolding enthalpy (van 't Hoff) [5]: 115 kcal/mol; Tm (Methanobacterium formicicum, pH 3, CD, glycine 25 mM, KCl 1.0 M): 73 °C; Tm [6]: 77 °C; unfolding enthalpy (calorimetric) [6]: 35.4 kcal/mol; unfolding enthalpy (van 't Hoff) [6]: 109 kcal/mol; Tm (Methanobacterium formicicum, pH 4, CD, glycine 25 mM, KCl 1.0 M): 91.5 °C; Tm [7]: 75.6 °C; unfolding enthalpy (calorimetric) [7]: 45.6 kcal/mol; unfolding enthalpy (van 't Hoff) [7]: 91.1 kcal/mol; Tm [8]: 90.3 °C; unfolding enthalpy (calorimetric) [8]: 47.1 kcal/mol; unfolding enthalpy (van 't Hoff) [8]: 129 kcal/mol; Tm (Methanobacterium formicicum, pH 5, CD, acetate 25 mM, KCl 0.2 M): 74.8 °C; Tm (Methanobacterium formicicum, pH 5, CD, acetate 25 mM, KCl 1.0 M): 92 °C; Tm [9]: 76.9 °C; unfolding enthalpy (calorimetric) [9]: 36.9 kcal/mol; unfolding enthalpy (van 't Hoff) [9]: 114 kcal/mol; Tm [10]: 90.9 °C; unfolding enthalpy (calorimetric) [10]: 41 kcal/mol; unfolding enthalpy (van 't Hoff) [10]: 124 kcal/mol; Tm (Methanobacterium formicicum, pH 6, CD, MES 25 mM, KCl 0.2 M): 70.9 °C; Tm [11]: 76.5 °C; unfolding enthalpy (calorimetric) [11]: 63.9 kcal/mol; unfolding enthalpy (van 't Hoff) [11]: 94.9 kcal/mol; Tm [12]: 90.5 °C; unfolding enthalpy (calorimetric) [12]: 50.4 kcal/mol; unfolding enthalpy (van 't Hoff) [12]: 122 kcal/mol
